Measurements: US20240317847A1 (Bayer, published 2024)
Numbering of substitutions follows the chain as printed.

B1: TPP-18087 (antibody, mouse IgG1, V domains shown)
VH: EVQLLESGGGLVQPGGSLRLSCAASGFTFSHYDMNWLRQAPGKGLEWVGVISYDGSNKFYADFVKGRFTISRDNSKNTLYLQMNSLRAEDTAVYYCARTPGSHFDYWGQGTLVTVSS
VL: QSVLTQPPSASGTPGQRVTISCSGSSSNIGNNAVNWYQQLPGTAPKLLIYYDDLLPSGVPDRFSGSKSGTSASLAISGLRSEDEADYYCSAWDDSLNGVVFGGGTKLTVLG
notes: mIgG1, Lambda
B2: TPP-19528 (antibody, mouse IgG1, V domains shown)
VH: EVQLLESGGGLVQPGGSLRLSCAASGFTFSIYAMSWVRQAPGKGLEWVSSISDTGDRTYYADSVKGRFTISRDNSKNTLYLQMNSLRAEDTAVYYCARSNWGSLDYWGQGTLVTVSS
VL: B1 VL with N31S, A33Y, N35Y, S90A, N97S, V99R
notes: mIgG1, Lambda
B3: TPP-29528 (antibody, mouse IgG1)
heavy: EVQLLESGGGLVQPGGSLRLSCAASGFTFSSYGMHWVRQAPGKGLEWVAVISYDGSYKYYADSVKGRFTISRDNSKNTLYLQMNSLRAEDTAVYYCAAGVPDYWGQGTLVTVSSAKTTPPSVYPLAPGSAAQTNSMVTLGCLVKGYFPEPVTVTWNSGSLSSGVHTFPAVLQSDLYTLSSSVTVPSSTWPSETVTCNVAHPASSTKVDKKIVPRDCGCKPCICTVPEVSSVFIFPPKPKDVLTITLTPKVTCVVVDISKDDPEVQFSWFVDDVEVHTAQTQPREEQFNSTFRSVSELPIMHQDWLNGKEFKCRVNSAAFPAPIEKTISKTKGRPKAPQVYTIPPPKEQMAKDKVSLTCMITDFFPEDITVEWQWNGQPAENYKNTQPIMDTDGSYFVYSKLNVQKSNWEAGNTFTCSVLHEGLHNHHTEKSLSHSPGK
light: QSVLTQPPSASGTPGQRVTISCSGSSSNIGSDYDVHWYQQLPGTAPKLLIYSNEERPSGVPDRFSGSKSGTSASLAISGLRSEDEADYYCSAWDSSLSGPVFGGGTKLTVLGQPKSSPSVTLFPPSSEELETNKATLVCTITDFYPGVVTVDWKVDGTPVTQGMETTQPSKQSNNKYMASSYLTLTARAWERHSSYSCQVTHEGHTVEKSLSRADCS
notes: mIgG1, Lambda
B4: TPP-29519 (antibody, mouse IgG1)
heavy: QVQLVESGGGVVQPGRSLRLSCAASGFTFSHYDMHWVRQAPGKGLEWVAVISYHGSVKFYADSVKGRFTISRDNSKNTLYLQMNSLRAEDTAVYYCARTPGFHFDYWGQGTLVTVSSAKTTPPSVYPLAPGSAAQTNSMVTLGCLVKGYFPEPVTVTWNSGSLSSGVHTFPAVLQSDLYTLSSSVTVPSSTWPSETVTCNVAHPASSTKVDKKIVPRDCGCKPCICTVPEVSSVFIFPPKPKDVLTITLTPKVTCVVVDISKDDPEVQFSWFVDDVEVHTAQTQPREEQFNSTFRSVSELPIMHQDWLNGKEFKCRVNSAAFPAPIEKTISKTKGRPKAPQVYTIPPPKEQMAKDKVSLTCMITDFFPEDITVEWQWNGQPAENYKNTQPIMDTDGSYFVYSKLNVQKSNWEAGNTFTCSVLHEGLHNHHTEKSLSHSPGK
light: QSVLTQPPSASGTPGQRVTISCSGSSSNIGSNYVSWYQQLPGTAPKLLIYYDDLRPSGVPDRFSGSKSGTSASLAISGLRSEDEADYYCSAWDDSLSGVVFGGGTKLTVLGQPKSSPSVTLFPPSSEELETNKATLVCTITDFYPGVVTVDWKVDGTPVTQGMETTQPSKQSNNKYMASSYLTLTARAWERHSSYSCQVTHEGHTVEKSLSRADCS
notes: mIgG1, Lambda

What was measured:
[1] = biological target: T1, human IL-11 (Invigate, e.g., lot #C121021-19) (human, UniProt P20809 22-199); assay: Di-complex ELISA: biotinylated human IL-11 on streptavidin plate, antibody titrated against 2 nM canine IL11RA-human-Fc (competitor)
T1 construct: Bought protein; also called hIL-11; hIL11
T1 sequence: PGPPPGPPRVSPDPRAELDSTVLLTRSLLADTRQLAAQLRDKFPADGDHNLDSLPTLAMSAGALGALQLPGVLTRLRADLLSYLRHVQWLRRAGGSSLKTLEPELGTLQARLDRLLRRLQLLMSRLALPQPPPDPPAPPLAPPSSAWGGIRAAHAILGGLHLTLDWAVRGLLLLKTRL
Method: In the Di-complex ELISA format anti IL-11 antibodies are tested for the ability to interfere with the formation of complexes consisting of immobilized murine IL-11 (Invigate, e.g., lot #C210819-09) or human IL-11 (Invigate, e.g., lot #C121021-19), and murine IL11RA-Fc fusion proteins or canine IL11RA-human-Fc fusion protein (FIG. 17a, b).
The assay is performed using streptavidin coated microtiter plates (Greiner bio-one, #781997). In a first step, 10 nM biotinylated mouse IL-11 (Invigate, Germany, e.g., lot #C210819-09) or human IL-11 (Invigate, Germany, e.g., lot #C121021-19) is coated in 25 μl PBS on the plate at 4° C. overnight. Next day, the plate is washed three times with 50 μl PBST and then blocked with 50 μl SmartBlock (Candor, #113125) for one hour at room temperature (RT). After additional three washes with PBST, 25 μl of a mixture of the murine anti IL-11 antibody and recombinant canine IL11RA-Fc fusion protein (Sino Biological, #70078-D02H) in PBS-T, 10% Smartblock are added simultaneously to the plate and incubated for one hour at RT. […] After three additional washes with PBS-T, 25 μl anti-human-POD (Sigma, #A0170) in PBS-T, 10% Smartblock is added and incubated for 1 hour at RT. After a final three washes with PBS-T, 25 μl AmplexRed (Fisher Scientific, A12222), 1/1000 in PBS, 0,003% H₂O₂, is added as substrate and incubated for 15 min at RT in the dark. Then, the fluorescence is measured with a plate reader at 535/595 nm. Signals from dose responses were used to calculate IC50 values (GraphPad Prism). Efficacy was calculated as [(signal measured at lowest antibody concentration−signal measured at the highest antibody concentration)×100] divided by (signal measured at lowest antibody concentration−signal measured in the absence of IL11Ra).

[2] = biological target: T2, human IL2Ra (Peprotech, Germany, #200-02RC) (human, UniProt P01589 22-240); assay: direct binding ELISA on coated IL2Ra, antibody at 3.3E-7 [M]
T2 construct: Coated on the ELISA plate; also called hIL2Ra; IL-2 receptor alpha
T2 sequence (looked up): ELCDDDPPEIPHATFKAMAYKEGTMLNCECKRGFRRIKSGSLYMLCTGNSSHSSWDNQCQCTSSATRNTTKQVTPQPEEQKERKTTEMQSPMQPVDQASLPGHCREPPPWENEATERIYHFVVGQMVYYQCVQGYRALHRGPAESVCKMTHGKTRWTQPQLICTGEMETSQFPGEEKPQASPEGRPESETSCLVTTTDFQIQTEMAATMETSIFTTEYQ
Method: IL2RA (Peprotech, Germany, #200-02RC) was coated at 1 or 0 μg/ml (buffer only control) in 30 μl coating buffer (Candor, #113500) per well on a 384 well microtiter plate (Maxisorb, Nunc, #460518) over night at 4-8° C. After two washes with 50 μl/well washing buffer (PBS+0.05% Tween, pH 7.4), the plates were incubated for two hours at room temperature with 50 μl/well SmartBlock (Candor, #113500). After blocking, the plates were washed three times with washing buffer. […] After three additional washes, 30 μl anti mouse IgG HRP-conjugated antibody (Biotechne, HAF007), diluted 1:1000 in PBS+0.05% Tween (pH 7.4), were added per well and incubated for one hour. After three additional washes, a mixture of Amplex red (Invitrogen, #12222, 10 mM stock solution in DMSO) 1:1000 diluted in PBS and H2O2 (30%, Merck, #107209)) diluted 1:10000 in PBS were added as substrate with 30 μl per well and incubated for 20 min in the dark. Relative fluorescence was measured with a microtiter plate reader at 535/590 nm.

human IL-11 = biological target: T3, human IL-11 (human, UniProt P20809 22-199); assay: Tri-complex ELISA, hIL-11 + mIL-11Ra-Fc + hgp130-Fc, inhibition of complex formation
T3 construct: Invigate recombinant protein; biotinylated when immobilized in the Di-complex ELISA; also called hIL11; hIL-11
T3 sequence: T1 sequence
Method: In the Tri-complex ELISA format IL-11 antibodies are tested for their ability to inhibit the formation of a complex consisting of murine or human gp130-Fc fusion protein, with murine or human IL-11, and a murine IL11RA-Fc fusion protein. The assay format was adapted according to FIG. 18 (a, b), depending on whether murine or human IL-11 IgG antibodies were tested.
IgG converted antibodies were subjected to the experimental assay procedure described in Example 19 and IC50 [M], respectively efficacy (%) were calculated accordingly.

Row | Binder | Efficacy (%) [1] [%] | ratio of the signals versus the isotype control TPP-10159 [2] | IC50 [1] [nM] | Efficacy (%) (human IL-11) | IC50 (human IL-11) [nM]
1 | B1 | 10.7 | 2.4 |  |  | 
2 | B2 | 57 | 0.8 | 3 |  | 
3 | B3 |  |  |  | 94.7 | 1
4 | B4 |  |  |  | 81.3 | 2.4
